Where no end group is shown, it is not given here.
T1: αsyn(35-45)
T1 peptide: EGVLYVGSKTK

T2: αsyn(87-95)
T2 peptide: SIAAATGFV

T3: αsyn(59-66)
T3 peptide: TKEQVTNV

T4: αsyn(74-84)
T4 peptide: VTAVAQKTVEG

T5: αsyn(48-60)
T5 peptide: VVHGVATVAEKTK


Legend:
Assay in all cases: MST
[1] = target: αSyn-SIM2(5A)
[2] = target: αSyn-SIM1(5A)
[3] = target: α-Synuclein-V40R/V49R
[4] = target: T1, αsyn(35-45)
[5] = target: T2, αsyn(87-95)
[6] = target: T3, αsyn(59-66)
[7] = target: T4, αsyn(74-84)
[8] = target: T5, αsyn(48-60)
[9] = target: human wild-type α-synuclein (full-length) (UniProt P37840 1-140)

Binder | Kd [1] | Kd [2] | Kd [3] | Kd [4] | Kd [5] | Kd [6] | Kd [7] | Kd [8] | Kd [9]
DKKEGEYIKLKVIGQDSSEIHFKVKMTTHLKKLKESYCQRQ (also: Alexa Fluor 647 NHS ester on amines when used as MST target) [SUMO1(15-55)] | 0.86 µM | 19.6 µM | 88.3 µM | 1.19 µM | 364 µM | 108 µM | 195 µM | 0.87 µM | 
SSEIHFKVKMTTHLKKLKESYCQRQ [SUMO1(31-55)] |  |  |  |  |  |  |  |  | 2.32 µM

— patent US20220194997A1 (published 2022)
